Experimental data as given in paper PMC5490261, “The structural and functional characterization of human RecQ4 reveals insights into its helicase mechanism”.
Changes are numbered by the printed parent chain.

Tests used:
Experiment in all cases: fluorescence polarization; WT-like, low nM apparent Kd; 20 mM HEPES pH 8.0, 10 mM NaCl, 5% glycerol, 1 mM MgCl2, 0.5 mM TCEP, 0.5 nM Cy3-ssDNA; temperature not stated
Conditions in all cases: protein: recombinant; tags: Trx-His6 removed by 3C protease; label: 5' Cy3
[1] = biological target: T1, RecQ4 427-1208 K843A/R844A/R848A (Homo sapiens, UniProt O94761 427-1208, K843A;R844A;R848A)
T1 sequence: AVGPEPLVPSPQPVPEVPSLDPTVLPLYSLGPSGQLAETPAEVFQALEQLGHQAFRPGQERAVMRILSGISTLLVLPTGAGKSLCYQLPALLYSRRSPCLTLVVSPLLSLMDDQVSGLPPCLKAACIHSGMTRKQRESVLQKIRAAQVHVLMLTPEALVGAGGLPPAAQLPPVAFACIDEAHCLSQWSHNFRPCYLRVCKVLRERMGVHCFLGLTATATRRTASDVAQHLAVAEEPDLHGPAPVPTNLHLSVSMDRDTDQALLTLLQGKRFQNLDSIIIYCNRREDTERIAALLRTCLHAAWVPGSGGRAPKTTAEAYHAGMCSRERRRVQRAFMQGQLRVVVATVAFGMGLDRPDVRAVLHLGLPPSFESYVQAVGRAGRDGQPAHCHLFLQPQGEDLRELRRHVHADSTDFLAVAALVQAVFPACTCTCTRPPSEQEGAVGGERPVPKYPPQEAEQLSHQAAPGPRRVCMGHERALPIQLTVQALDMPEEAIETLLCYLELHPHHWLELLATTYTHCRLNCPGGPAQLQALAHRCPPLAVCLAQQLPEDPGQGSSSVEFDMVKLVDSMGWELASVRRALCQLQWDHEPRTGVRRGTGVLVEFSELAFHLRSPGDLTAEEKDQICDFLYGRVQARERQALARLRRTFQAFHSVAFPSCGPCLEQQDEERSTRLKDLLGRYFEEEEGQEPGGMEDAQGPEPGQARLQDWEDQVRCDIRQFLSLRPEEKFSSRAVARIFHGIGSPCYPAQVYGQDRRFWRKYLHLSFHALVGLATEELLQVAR

[2] = biological target: T2, RecQ4 427-1208 K843A/R844E/R848A (Homo sapiens, UniProt O94761 427-1208, K843A;R844E;R848A)
T2 sequence: T1 sequence with A418E

[3] = biological target: T3, RecQ4 427-1208 R894A/R895A (Homo sapiens, UniProt O94761 427-1208, R894A;R895A)
T3 sequence: T1 sequence with A417K, A418R, A422R, R468A, R469A

Measured: binding result

CCATTCCACCCTCTATTTTTTTTTTTTTTT (ssDNA) [T3-Cy3]
binds: [1] | [2] | [3]
